In the DeepSol protein solubility set:

test: soluble on expression in E. coli; label from the status in PepcDB or PDB records

Soluble on expression in E. coli, not soluble:
MAGEKFQKKGKEKWKEKVWYTVEAPPYLGSKEVSVALGEDSNSMVNRVVEVPISELTGNFKKSNEKALFRITNCEGTKCKTIFIGHYIGDDYIRRLVRRRKERIDIIEDVKTSDNSIITVKIVVVTDGKVTNTKKFQIRKVLTDFILNKGLSLPYSEFVRYLIGDDIYNDMISATKDIYPLKKIEVRKSELVSLSGISEIHAGSQNSGEEPVVQNLEHHHHHH
MGSDKIHHHHHHMKKYQRLAEQIREQIASGVWQPGDRLPSLREQVASSGMSFMTVGHAYQLLESQGRIIARPQSGYYVAPHPVCRSVATAAHVIRDEAVDINTYIFEMLQASRDTSVVPFASAFPDPRLFPLPQLNRSLAQVSKTATAMSVIENLPPGNAELRYAIARRYAQQGITVSPDEIVITAGALEALNLSLQAVTAPGDWVVVENPCFYGALQALERLRLKALSIPTDVKEGIDLMALEQALQEYPVKACWLMTNSQNPLGFTLSAEKKARLVALLTHHNVTLIEDDVYSELYFGREKPLPAKAWDRDDTVLHCSSFSKCLVPGFRIGWVAGGSHARQIQRLQLMSTLSTSSPMQLALVDYLSTRRYDAHLRRLRRQLAERKQQAWQTLLRHLPAEVKIHHNDSGYFLWLELPEQLDAGELSAKALEHLISIAPGKMFSTSGAWTRFFRFNTAWHWGEREEQAVKQLGSLIREMLSAKSLV
MGSDKIHHHHHHMLSLKSEVLARHLPLFNGKSILLFGNVRDRFADQIRSISSHVAIFSHYFDYARHYNDVEFGLDCTTPANLGVFYWTKNKQECHYQLLQWLSQTAIGQQMLIIGENRAGVRSVEKLLSPFGQIAKIDSARRCGLYHFELQTIPQFDCQKFWKSYRLADLTVLSLPAAFSSTELDAGSQLLLSSFTNQDRLTGNVLDLGCGAGVIGAYLKQRFPAISLTMSDIHSMAIHSAQATLAKNKLTGTVIASDVFSHINDRFDLIVSNPPFHDDIDTAYHTVESLIMQAKNHLNYGGELRIVANAFLPYPDLLDKAFGSHQVVTKSNKFKVYSARV
MSLSIYQASIPTFLRTLGNLSAILKKAAAHAEAKNIDPRIFIDARLAPDMFPLARQVQIASDAAKGAGARLAGLEVPSYADTETTFDELQARIARTVEFLEGIREEQLDGAEERNVTLKVRGQEISFNGRDFLFGFALPNFFFHVTTAYAILRHNGVELGKMDFLGGA
MGSDKIHHHHHHMKLRRNMKWNDEGKRIVEMLKLRTPPVGVKFFQEKYEPERAFRPSKYGIKMAVCQAIAFARYIGRTVVLEAEDFGCPPAMLLYGVAEYEGSLKDILVGAQWLKDESCEVAEQKLPLGKYKSFVFGDMTKMAEEPEAVMIFGTPAQIGRLIQAATYFGGAVKANLTAKTASCAEALFPALRGEVAIAVPGAGDRVFAAIQETEMIFAMPYAWTGKILEGLENAGRGANISYPPSPFLMFTPRFPKHYRETAEKFKLV
MGSDKIHHHHHHMEHLLEVNNLSVSFKVEEGEVQAVRNVSFNLKKGETLAIVGESGCGKSVLCKSLMRILPYNGYIKNGEVLLKSSDLVKKSEKEMEDIRGKNISMIFQDPMTSLNPTISIGKQIAEAVIIHQGISKSEAKKRAIELIELVGIDNPEKRFKQFPHHFSGGMRQRIVIAIALACNPDVLIADEPTTALDVTIQAQIIDLIKDLQHKIGLSIIFITHDLGVVATIADRIAVMYAGKIVEIGTVEDIFYDPRHPYTWGLLGSLPTLDSQDDYLYNIPGMPPNLLNPPKGDAFAIRNKNALKIDYEKEPPMFKINDTHSAATWLLHPDAPEVDVPVRVNCGRVISNE
MPNIDNVFSIYAGQLELLRQNGLIERTGEYICPICLNSFNKEQLNKLSMEDAPQASLGGKKIAITCKKCNNTCGHETDIHLVNFITYLEEQEFLPGSNRRVKIFDDETTINANLEVGNTKELKMIIPNKINNPKALTNHLSKLTVGGIIDIQNHPLKIDMKKVSTAILKNAYIILFARFGYSFLLNSFYDRIREQILNPAKHIIPESLWTKQTSISVKDGIYFSNSNVYRGFFIIYSLTKLRTHHFCICIPTPQVYFEAIAYYFREYKAGIPIYMMGSDGIDYFQNIDNIKALNKWLVNWSLGSPV
MDKVPQAVRDYLMEAHQLAAQWSLPNDRGDYINSKSIPIKSVAVIGGGTMGRGIAIAFCLSGFETYLVEVNNKAAEFCKNELEITYKREKAFRRLNDSKVEKLRKNLQITTDFQKLNNCDLIVEAVFEDMKLKKELFTKLDKICKPSCIFGTNTSSLDLNEMSSVLRDPTKVVGIHFFNPANLIRMVEVIYGSKTSSKAVATAFEACRSIKKLPVLVGNCPAFVFNRLLGVYLNQSQKLMYEYGYLPHQIDKIITNFGFLMGPLTVADMNGLDVMEKLKKENGWPASDFEKEVWRQKRYGRKTNKGYYKYDPNTHKKENDIEMEQLIRKFSSAASPNIQILNDQDAVNFLLYPMVNEGLLCIEEGIIHHESLIDIMFILGFGWPVATGGPMRFGWLQGIEKVASTIILWNSLEPNDRTYKVAATLQNVDRKNFAAKL
KEDYDRRSGKVSEPAPQATEEEDKVEVEPEDNGISSVADMSDGKESIAPKGHAVKPDEGAHSAKKTYKIQILSSTTKLKNGDKRLKGYKVVIEQRGGRFFYLTGAVSSEDEARHLRKKVRKSFPDAYIVVYEAGKRVREIY
KDRSIIAMGAWLEVLSEEKDGNRLARHHEHGKIWKKPTRHEDIADFFPFGNPIHNNTMIMRRSVIDGGLRYNTERDWAEDYQFWYDVSKLGRLAYYPEALVKYRLHANQVSSKYSIRQHEIAQGIQKTARNDFLQSMGFKTRFDSLEYRQIKAVAYELLEKHLPEEDFERARRFLYQCFKRTDTLPAGAWLDFAADGRMRRLFTLRQYFGILHRLLKNR

Soluble on expression in E. coli, soluble:
MGHHHHHHSSGLVPRGSATERQDRNLLYEHAREGYSALPLLDMESLCAYPEDAARALDLRKGELRSKDLPGIISTWQELRQLREQIRSLEEEKEAVTEAVRALVVNQDNSQVQQDPQYQSLRARGREIRKQLTLLYPKEAQLEEQFYLRALRLPNQTHPDVPVGDESQARVLHVVGDKPAFSFQPRGHLEIAEKLDIIRQKRLSHVSGHRSYYLRGAGALLQHGLVNFTLNKLIHRGFTPMTVPDLLRGVVFEGCGMTPNAKPSQIYNIDPSRFEDLNLAGTAEVGLAGYFMDHSVAFRDLPIRMVCSSTCYRAETDTGKEPWGLYRVHHFTKVEMFGVTGPGLEQSSELLEEFLSLQMEILTELGLHFRVLDMPTQELGLPAYRKFDIEAWMPGRGRFGEVTSASNCTDFQSRRLHIMFQTEAGELQFAHTVNATGCAVPRLLIALLESYQQKDGSVLVPPALQPYLGTDRITTPTHVPLQYIGPNQPQKPRLPGQPASS
GIDPFTMAKKDGAIEVEGRVVEPLPNAMFRIELENGHKVLAHISGKMRQHYIRILPEDRVVVELSPYDLSRGRIVYRYK
MAHHHHHHMENILSKVDKIEPFDPKVKEQYNQFKYDVTKQAIESLRERIPQRIIYFNTLVNVNAEPGSILDVRDLDTKTYKYTSNQTEENARKKHKTSDHNVTEKKKDSIEMNTQNDINYEEKKIVIDENIIYTHYVPSHKQISAELEKIKAYSSELIEIIGNIKLWIQLNVPRIEDGNNFGVGIQEEAIQELARVEESAFNLYDAIVKYYMDRAKLATKVIKYPNVHDYQEAVQELDKKEWIHIKITIIDMRNNYIMLYDLLCKNWEKVVKPKNEDAHHRMTF
MAHHHHHHMTGSDEEFEIGDILDIKKKKNGFIYLVNWKGYSDDENTWEPESNLLHLTTFKKKMELLKSAYLNKVDTTQNDGNLLKNHLTSPSSLQEETGTTNITKTKGRNPLISKKKGNKKGVTNKLEAKKLLSTNSDNSQKMSDDEYNESIKQETIENPHDSSLLNVEDVYSVRIKNRKMEFLASLKNASPQWVEESNIRRTGHLNIKVNDFKKYIRRKKTSKGNRIVIKNLHNVGDELYISVIHNINNKEIHSLYPSKVIEYIYPQELLNFLLSRLRYRTA
MEGSHHHHHHSQAQSKAQVLQSVAGQTLTVRCQYPPTGSLYEKKGWCKEASALVCIRLVTSSKPRTMAWTSRFTIWDDPDAGFFTVTMTDLREEDSGHYWCRIYRPSDNSVSKSVRFYLVVS
MSLKQKSVPMRHGTIYLYGLHSVHAALKNPKRVFEHLYITPNALKRLNIPESDLPCPITLCLPKQLDSFVGNDAVHQGIVLETEPLKPCQLSELTNTDLVIVMDQITDPHNVGAIMRSAVAFKAEALITTYRHSPQESGVLAKAASGALEMIHYITVQNLAETLQELHKAGFISFGLDSEGNHPLETTLTGEKIALVLGAEGKGLRKKTRENVCALTRLDMPGNIKSLNVSNAATIALYAAHKYLRGEGHHHHHH
